This note sets out measurements from US20100310549A1 (Bristol-Myers Squibb, published 2010).

Experiment [1] deals with mouse vascular endothelial growth factor receptor-2 Fc chimera (Flk-1-Fc) (mouse) (UniProt P35918). Briefly: radioactive equilibrium binding.
Experiment [2] addresses T1, mouse vascular endothelial growth factor receptor-2 Fc chimera (Flk-1-Fc) (mouse, UniProt P35918 20-762).
T1 construct: bought from R&D Systems; also called mouse VEGF-R2-Fc; Fc part of the bought chimera not given, not described
In words: radioactive equilibrium binding assay, 1 nM Flk-1-Fc, percent bound, average of 3 experiments.

The target of experiment [3] is T2, human vascular endothelial growth factor receptor-2 Fc chimera (KDR-Fc) (human, UniProt P35968 20-764).
T2 construct: range 1-764; also called human VEGF-R2-Fc; not shown: human IgG1 Fc
In words: BIAcore, KDR-Fc immobilised on CM5 chip. Here is the method: (§1) The binding kinetics of fibronectin-based scaffold proteins binding proteins to the target was measured using BIAcore 2000 biosensor (Pharmacia Biosensor). Human and mouse VEGF-R2-Fc fusions were immobilized onto a CM5 sensor chip and soluble binding proteins were injected at concentrations ranging from 0 to 100 nM in buffer O (10 mM HEPES, 150 mM NaCl, 0.005% Tween 20, pH 7.4). Sensorgrams were obtained at each concentration and were evaluated using a program, BIA Evaluation 2.0 (BIAcore), to determine the rate constants […] The affinity constant, KD was calculated from the ratio of rate constants koff/kₒₙ.

In experiment [4] the target is T1, mouse vascular endothelial growth …. In words: BIAcore, Flk-1-Fc immobilised on CM5 chip. Here is the method:
as §1

Experiment [5] addresses VEGFR-2 (KDR) of HUVEC cells (human, UniProt P35968 20-1356). In words: cell-based or functional assay.
The target in experiment [6] is human KDR/EpoR fusion (phKE8) on Ba/F3-KDR cells (human, UniProt P35968 20-764; P19235 251-508, limits assumed). In words: cell-based or functional assay.
The target in experiment [7] is T3, flk-1/EpoR fusion (pmKE2) on CHO-Flk or Ba/F3-Flk cells (mouse; human, UniProt P35918 20-762; P19235 251-508, limits assumed). Briefly: cell-based or functional assay.
In experiment [8] the target is T3, flk-1/EpoR fusion (pmKE2) on CHO-Flk or …. In words: flow cytometry on CHO-Flk cells, anti-His6 detection. (In general: A flow cytometer gives signals particle by particle.)
In experiment [9] the target is T4, full-length human KDR on CHO-KDR cells (human, UniProt P35968 20-1356).
T4 construct: whole, on cells; stably transfected CHO-K1 cells
In words: flow cytometry on CHO-KDR cells, anti-His6 detection. The protocol: The functionality of KDR and Flk-1 binding molecules in a cell culture model system was evaluated with E. coli produced binding molecules.
Binding of fibronectin-based scaffold protein to cell-surface KDR and Flk-1 was analyzed simultaneously on VEGF-R2-expressing and control cells by flow cytometry. CHO-pcDNA3 cells (control) were released from their dishes with trypsin-EDTA, washed in Dulbecco's PBS without calcium and magnesium (D-PBS⁻; Invitrogen), and stained for 30 minutes at 37° C. with 1.5 μM CMTMR (5-(and-6)-(((4-chloromethyl)benzoyl)amino)-tetramethylrhodamine) (Molecular Probes). The cells were washed in D-PBS⁻ and incubated for a further 30 minutes at 37° C., and then resuspended in blocking buffer (D-PBS710% fetal bovine serum) on ice. CHO-KDR or CHO-Flk cells were treated identically except that CMTMR was omitted. 75,000 of CMTMR-stained CHO-pcDNA3 cells were mixed with an equal number of unstained CHO-KDR or CHO-Flk cells in each well of a V-bottom 96-well plate. All antibodies and fibronectin-based scaffold proteins were diluted in 25 μl/well of blocking buffer, and each treatment was conducted for 1 hour at 4° C. Cell mixtures were stained with His₆-tagged fibronectin-based scaffold proteins, washed twice with cold D-PBS⁻, and then treated with 2.5 μg/ml anti-His₆ MAb (R&D Systems), washed, and stained with 4 μg/ml Alexa Fluor 488-conjugated anti-mouse antibody (Molecular Probes). For cells treated with an anti-KDR mouse monoclonal antibody (Accurate Chemical, Westbury, N.Y.) or an anti-flk-1 goat polyclonal antibody (R&D Systems), the anti-His₆ step was omitted, and antibody binding was detected with the species-appropriate Alexa Fluor 488 conjugated secondary antibody (Molecular Probes). Following staining, cells were resuspended in 200 μl/well D-PBS⁻/1% FBS/1 μg/ml 7-aminoactinomycin D (7-AAD; Molecular Probes) and analyzed by flow cytometry on a FACSCalibur (Becton Dickinson, San Jose, Calif.) equipped with a […].

Sequence of mouse vascular endothelial growth factor receptor-2 Fc chimera (Flk-1-Fc) (mouse) (P35918 20-762, change not shown): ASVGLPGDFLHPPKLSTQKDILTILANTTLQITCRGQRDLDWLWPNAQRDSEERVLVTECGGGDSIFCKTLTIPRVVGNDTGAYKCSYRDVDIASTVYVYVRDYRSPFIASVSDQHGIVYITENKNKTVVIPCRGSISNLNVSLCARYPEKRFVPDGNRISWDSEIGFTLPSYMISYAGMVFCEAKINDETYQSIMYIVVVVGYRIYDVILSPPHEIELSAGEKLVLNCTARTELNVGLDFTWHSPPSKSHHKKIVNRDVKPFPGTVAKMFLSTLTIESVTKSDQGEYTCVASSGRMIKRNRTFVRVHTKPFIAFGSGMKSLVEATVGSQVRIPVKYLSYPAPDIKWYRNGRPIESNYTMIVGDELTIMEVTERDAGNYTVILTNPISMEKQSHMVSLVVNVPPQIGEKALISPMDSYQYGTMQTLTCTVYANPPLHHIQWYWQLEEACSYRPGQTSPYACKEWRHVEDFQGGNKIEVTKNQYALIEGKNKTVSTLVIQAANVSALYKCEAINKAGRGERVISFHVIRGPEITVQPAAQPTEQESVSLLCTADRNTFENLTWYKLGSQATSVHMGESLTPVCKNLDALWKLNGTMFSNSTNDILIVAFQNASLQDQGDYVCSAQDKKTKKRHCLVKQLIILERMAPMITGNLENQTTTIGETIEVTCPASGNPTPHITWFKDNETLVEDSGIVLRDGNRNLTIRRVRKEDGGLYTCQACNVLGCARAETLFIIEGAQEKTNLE
T1 sequence (P35918 20-762, change not shown): as above
T3 sequence (P35918 other isoform, or with tags, fused parts or gaps limits assumed, form in doubt): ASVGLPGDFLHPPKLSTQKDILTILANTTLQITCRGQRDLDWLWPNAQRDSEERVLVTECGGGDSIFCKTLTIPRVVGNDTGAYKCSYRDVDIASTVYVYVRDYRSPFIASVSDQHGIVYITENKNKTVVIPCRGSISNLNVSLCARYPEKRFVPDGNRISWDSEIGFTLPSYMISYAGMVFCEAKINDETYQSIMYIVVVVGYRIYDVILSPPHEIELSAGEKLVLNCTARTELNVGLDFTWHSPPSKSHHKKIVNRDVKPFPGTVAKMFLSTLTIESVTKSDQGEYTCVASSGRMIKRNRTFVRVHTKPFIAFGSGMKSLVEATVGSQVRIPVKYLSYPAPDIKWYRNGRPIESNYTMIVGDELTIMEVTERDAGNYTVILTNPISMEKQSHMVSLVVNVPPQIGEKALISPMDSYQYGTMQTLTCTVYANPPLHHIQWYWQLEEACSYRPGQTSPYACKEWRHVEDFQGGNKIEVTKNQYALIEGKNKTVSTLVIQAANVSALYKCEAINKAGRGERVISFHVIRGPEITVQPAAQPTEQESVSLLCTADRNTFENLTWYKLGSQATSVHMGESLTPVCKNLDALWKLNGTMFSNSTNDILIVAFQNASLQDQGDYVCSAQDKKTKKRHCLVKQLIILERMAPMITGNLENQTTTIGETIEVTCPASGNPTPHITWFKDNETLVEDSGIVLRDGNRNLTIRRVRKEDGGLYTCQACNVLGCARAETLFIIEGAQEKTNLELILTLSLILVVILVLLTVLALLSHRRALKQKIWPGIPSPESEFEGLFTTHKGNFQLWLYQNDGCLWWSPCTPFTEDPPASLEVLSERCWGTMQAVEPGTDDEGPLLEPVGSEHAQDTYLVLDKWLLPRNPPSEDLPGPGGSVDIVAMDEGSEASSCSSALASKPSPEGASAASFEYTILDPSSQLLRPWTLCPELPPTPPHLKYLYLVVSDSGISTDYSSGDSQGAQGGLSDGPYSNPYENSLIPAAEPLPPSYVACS

B1: EGE11 (FG loop …) (designed binder)
chain: EVVAATPTSLLISWRHPHFPTRYYRITYGETGGNSPVQEFTVPLQPPTATISGLKPGVDYTITGYAVTMGKNDRELLTPISINYRT
As to B1, in [1], the Binding to 1 nM Flk-1, % is 1%.

B2: F6 (designed binder)
chain: EVVAATPTSLLISWRHPHFPTRYYRITYGETGGNSPVQEFTVPLQPPTATISGLKPGVDYTITGYAVTVEQNGRVLMTPISINYRT
Regarding B2, in experiment [1], the Binding to 1 nM Flk-1, % is 2%.

B3: F10 (Table 2) (designed binder)
chain: EVVAATPTSLLISWRHPHFPTRYYRITYGETGGNSPVQEFTVPLQPPTATISGLKPGVDYTITGYAVTMAPNGRELLTPISINYRT
B3: the Binding to 1 nM Flk-1, % in experiment [1] was determined as 1%.

B4: K9 (designed binder)
chain: EVVAATPTSLLISWRHPHFPTRYYRITYGETGGNSPVQEFTVPLQPPTATISGLKPGVDYTITGYAVTFGLYGKELLIPISINYRT
notes: Del 1-8; in vitro translated, Flag tag
B4: the binding result in experiment [2] is on record as “no binding (tested: 1 nM Flk-1-Fc)”.

B5: K1 (designed binder)
chain: EVVAATPTSLLISWRHPHFPTRYYRITYGETGGNSPVQEFTVPLQPPTATISGLKPGVDYTITGYAVTMGLYGHELLTPISINYRT
notes: as for B4
In the case of B5, the binding result in experiment [2] is given as “no binding (tested: 1 nM Flk-1-Fc)”.

B6: K15 (designed binder)
chain: EVVAATPTSLLISWRHPHFPTRYYRITYGETGGNSPVQEFTVPLQPPTATISGLKPGVDYTITGYAVTEVHHDREIKTPISINYRT
notes: as for B4
Turning to B6, in experiment [2], the binding result is given as “no binding (tested: 1 nM Flk-1-Fc)”.

B7: K13 (designed binder)
chain: EVVAATPTSLLISWRHPHFPTRYYRITYGETGGNSPVQEFTVPLQPPTATISGLKPGVDYTITGYAVTLALKGHELLTPISINYRT
notes: as for B4
B7: in experiment [2], the binding result is recorded as “no binding (tested: 1 nM Flk-1-Fc)”.

B8: K10 (designed binder)
chain: EVVAATPTSLLISWRHPHFPTRYYRITYGETGGNSPVQEFTVPLQPPTATISGLKPGVDYTITGYAVTTGPNDRLLFVPISINYRT
notes: as for B4
Regarding B8, the binding result in experiment [2] is “no binding (tested: 1 nM Flk-1-Fc)”.

B9: K12 (designed binder)
chain: EVVAATPTSLLISWRHPHFPTRYYRITYGETGGNSPVQEFTVPLQPPTATISGLKPGVDYTITGYAVTDVYNDHEIKTPISINYRT
notes: as for B4
As to B9, in experiment [2], the binding result is “no binding (tested: 1 nM Flk-1-Fc)”.

B10: K14 (designed binder)
chain: EVVAATPTSLLISWRHPHFPTRYYRITYGETGGNSPVQEFTVPLQPPTATISGLKPGVDYTITGYAVTREENDHELLIPISINYRT
notes: as for B4
B10: the binding result in experiment [2] is given as “no binding (tested: 1 nM Flk-1-Fc)”.

B11: K6 (designed binder)
chain: EVVAATPTSLLISWRHPHFPTRYYRITYGETGGNSPVQEFTVPLQPPTATISGLKPGVDYTITGYAVTDGKDGRVLLTPISINYRT
notes: as for B4
For B11, the binding result in experiment [2] is given as “no binding (tested: 1 nM Flk-1-Fc)”.

B12: M5FL, E. coli-expressed, His6 (designed binder)
chain: VSDVPRDLEVVAATPTSLLISWRHPHFPTRYYRITYGETGGNSPVQEFTVPLQPPLATISGLKPGVDYTITVYAVTKERNGRELFTPISINYRTEIDKPSQHHHHHH
notes: soluble E. coli form with Ser100
In [3], B12 displayed a Kd of 0.89 nM, a koff of 9.2e-05 s⁻¹ and an on-rate constant (kon) of 100000 M⁻¹ s⁻¹. In [4], binding was characterised by a dissociation constant (Kd) of 2.1 nM, the dissociation rate constant (koff) was 0.000582 s⁻¹ and the kon is 280000 M⁻¹ s⁻¹. For the same molecule, in experiment [5], the “Inhibition of VEGF-induced proliferation of HUVEC cells (IC50, nM)” value (“Inhibition … of HUVEC cells (IC50, nM)” for short) came out at 8.5 nM. Also, in [6], the “Inhibition of VEGF-induced proliferation, Ba/F3-KDR (IC50, nM)” value (from here on “Inhibition … Ba/F3-KDR (IC50, nM)”) was determined as 3.9 nM. For the same molecule, the “Inhibition of VEGF-induced proliferation, Ba/F3-Flk (IC50, nM)” value (from here on “Inhibition … Ba/F3-Flk (IC50, nM)”) in [7] stood at 5.1 nM.

B13: VR28, E. coli-expressed, His6 (designed binder)
chain: VSDVPRDLEVVAATPTSLLISWRHPHFPTRYYRITYGETGGNSPVQEFTVPLQPPTATISGLKPGVDYTITGYAVTVAQNDHELITPISINYRTEIDKPSQHHHHHH
notes: soluble E. coli form; N-terminal Met not described
Regarding B13, in experiment [3], the equilibrium dissociation constant (Kd) stood at 13 nM, the off-rate (koff) was determined as 0.00034 s⁻¹ and the kon is 30000 M⁻¹ s⁻¹.

B14: E19, E. coli-expressed, His6 (designed binder)
chain: EVVAATPTSLLISWRHPHFPTRYYRITYGETGGNSPVQEFTVPLQPPTATISGLKPGVDYTITGYAVTVERNGRHLMTPISINYRTEIDKPSQHHHHHH
notes: soluble E. coli form; N-terminal residues added for expression not described
For B14, in experiment [3], binding was characterised by a dissociation constant (Kd) of 0.06 nM, the koff amounted to 1.7e-05 s⁻¹ and the on-rate (kon) was found to be 300000 M⁻¹ s⁻¹. In [8], this molecule displayed a half-maximal effective concentration (EC50) of 5.3 nM. In [4], the dissociation constant (Kd) worked out at 0.34 nM, the koff was 0.000223 s⁻¹ and the kon was 660000 M⁻¹ s⁻¹. Besides, the “Inhibition … of HUVEC cells (IC50, nM)” value in experiment [5] is 11.8 nM. The molecule further registered a concentration for a half-maximal effect (EC50) in [9] of 7.6 nM. Further, the “Inhibition … Ba/F3-KDR (IC50, nM)” value in [6] was found to be 12.3 nM. In addition, in experiment [7], the “Inhibition … Ba/F3-Flk (IC50, nM)” value is 5.8 nM.

B15: E29, E. coli-expressed, His6 (designed binder)
chain: EVVAATPTSLLISWRHPHFPTRYYRITYGETGGNSPVQEFTVPLQPPTATISGLKPGVDYTITGYAVTVERNGRVLMTPISINYRTEIDKPSQHHHHHH
notes: as for B14
Consider B15, for which, in experiment [3], the affinity, expressed as Kd, was 0.19 nM; the koff worked out at 7e-05 s⁻¹; the kon came to 360000 M⁻¹ s⁻¹. Moreover, the response in experiment [8] was half-maximal at 0.6 nM (EC50). Moreover, in experiment [4], the dissociation constant Kd worked out at 0.37 nM, the koff came out at 0.000288 s⁻¹ and the kon worked out at 790000 M⁻¹ s⁻¹. In addition, in [5], the “Inhibition … of HUVEC cells (IC50, nM)” value is 8.4 nM. The molecule further gave a concentration giving a half-maximal response (EC50) in experiment [9] of 2.3 nM. Further, the “Inhibition … Ba/F3-KDR (IC50, nM)” value in experiment [6] came to 10 nM. For the same molecule, in experiment [7], the “Inhibition … Ba/F3-Flk (IC50, nM)” value was determined as 4.7 nM.

B16: E18, E. coli-expressed, His6 (designed binder)
chain: EVVAATPTSLLISWRHPHFPTRYYRITYGETGGNSPVQEFTVPLQPPTATISGLKPGVDYTITGYAVTVERNGRELNTPISINYRTEIDKPSQHHHHHH
notes: as for B14
Turning to B16, the equilibrium dissociation constant (Kd) in experiment [3] was found to be 0.46 nM; in experiment [4], 0.33 nM. Moreover, the off-rate (koff) in experiment [3] was 0.000121 s⁻¹; in experiment [4], 0.000195 s⁻¹. The kon stood at 260000 M⁻¹ s⁻¹ in [3] and 600000 M⁻¹ s⁻¹ in experiment [4]. Also, the concentration for a half-maximal effect (EC50) in [8] turned out to be 0.9 nM; in [9] it was 4.2 nM. Also, in [5], the “Inhibition … of HUVEC cells (IC50, nM)” value was determined as 12.8 nM. Further, the “Inhibition … Ba/F3-KDR (IC50, nM)” value in experiment [6] came out at 5.4 nM. Besides, in experiment [7], the “Inhibition … Ba/F3-Flk (IC50, nM)” value was 2.4 nM.

B17: E6, E. coli-expressed, His6 (designed binder)
chain: EVVAATPTSLLISWRHPHFPTRYYRITYGETGGNSPVQEFTVPLQPPTATISGLKPGVDYTITGYAVTDGWNGRLLSIPISINYRTEIDKPSQHHHHHH
notes: as for B14
In the case of B17, in experiment [3], the Kd worked out at 0.08 nM, the koff is 6.7e-05 s⁻¹ and the on-rate (kon) stood at 890000 M⁻¹ s⁻¹. Moreover, in experiment [4], the affinity, expressed as Kd, was 2.02 nM; the off-rate (koff) came to 0.00136 s⁻¹; the on-rate constant (kon) was 670000 M⁻¹ s⁻¹.

What is called Kd is the concentration at which binding is half-saturated. Broadly, the koff is the first-order rate constant of dissociation. Read a low koff as a long-lived complex. The term kon denotes the second-order rate constant of association. What is called EC50 is the concentration that produces a half-maximal response. Read a high EC50 as a need for much substance.
